Consider three molecules from publication PMC11706664, “Structure of WzxE the lipid III flippase for Enterobacterial Common Antigen polysaccharide” (Open Biology, 2025).

Experiment [1] addresses T1, WzxE, the lipid III flippase from Escherichia coli (E. coli K-12 MG1655, UniProt P0AAA7, V inserted between M1 and S2 (worked out from the letters of primer WzxE-F, …)).
T1 construct: His10 removed with TEV protease; Residues of the XhoI site and of the TEV site probably stay at the C-terminus after cleavage (surmise); The same construct purified in DDM only was used in the ELISA; also called chain A; source: E. coli C43(DE3), purified from membranes (DM extraction with DDM/OGNG purification, or DDM only; nickel NTA, TEV cleavage, reverse IMAC, SEC); not shown: His10, …
Description: SEC; WzxE incubated with nanobody at molar ratio 1:1.2 WzxE:Nb for 2 h at 4°C; co-elution on size exclusion chromatography in buffer B (25 mM Tris pH 7.5, 150 mM NaCl, 5% glycerol, OGNG, DDM). The settings on record: both partners purified. (In gel filtration, larger molecules generally elute earlier.)

Experiment [2] concerns the target T1, WzxE, the lipid III flippase from …. Kind of experiment: ELISA; biotinylated Nb10-strep II (1.62 µM/well) bound on Streptactin-coated plates; WzxE purified in DDM added at 2.78 µM for 1 h; room temperature, 25 mM Tris pH 7.5, 150 mM NaCl, 0.02% DDM, 0.1% BSA, 0.05% Tween-20. The note with it: both partners purified. In general terms: ELISA stands for enzyme-linked immunosorbent assay.

The target is the same in experiment [3]. Description: crystal structure; WzxE-Nb10-Nb7 complex (Nb7 added to pre-formed WzxE-Nb10), with und-PP-GlcNAc or nerol-PP-GlcNAc added, lipidic cubic phase, 20°C; outward-facing conformation (PDB 9G9M, 9G9O). The note with it: both partners purified.
For experiment [4], the target named is T2, WzxE-Nb10 complex (WzxE held on immobilised biotinylated Nb10-strep II) (Escherichia coli K-12 MG1655 (WzxE), V inserted between M1 and S2 (worked out from the letters of primer WzxE-F, …, biotin (EZ-link Sulfo-NHS-LC Biotin kit))).
T2 construct: WzxE, E. coli K-12 MG1655, as the chain of m1 (purified in DDM); as the chain of m4 (Nb10 with strep II tag); A complex of a natural membrane protein and a nanobody, so that no single origin fits; not shown: His10, C-terminal, cleaved; strep II, C-terminal, kept
T2 chain: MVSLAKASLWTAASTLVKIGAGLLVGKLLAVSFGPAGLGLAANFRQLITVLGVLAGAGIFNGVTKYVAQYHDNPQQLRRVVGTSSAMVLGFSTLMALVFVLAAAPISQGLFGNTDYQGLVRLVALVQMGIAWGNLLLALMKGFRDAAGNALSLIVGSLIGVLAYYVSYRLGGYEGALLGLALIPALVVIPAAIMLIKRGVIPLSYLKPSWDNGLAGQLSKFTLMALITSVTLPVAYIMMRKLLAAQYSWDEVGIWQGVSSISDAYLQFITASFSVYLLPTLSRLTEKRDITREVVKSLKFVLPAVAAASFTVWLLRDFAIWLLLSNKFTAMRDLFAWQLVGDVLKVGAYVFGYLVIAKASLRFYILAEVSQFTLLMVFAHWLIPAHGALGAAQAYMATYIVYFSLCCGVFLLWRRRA
Kind of experiment: ELISA; nanobodies screened on the WzxE-Nb10 complex held on Streptactin-coated plates by biotinylated Nb10-strep II; anti-His HRP antibody, read at 410 nm; room temperature; the step of adding the nanobodies is not described.

B1: nanobody Nb10 (CA12485) (VHH)
VHH: QVQLVESGGGLVQAGGSLGLSCAASGRTFSNYVMAWFRQAPGKEREFVARISESRGTTDYADSVKGRFTISRDNAKNTIYLQMNSLNPGDTAVYSCAATLPAWTGIIGGRRPGNYPYWGQGTQVTVSS
notes: Raised by llama immunization with WzxE (Nanobody4Instruct), in plasmid pMESy4; also called chain B; source: E. coli WK6 (su-), purified (His-Trap, SEC)
In the case of B1, the binding result in experiment [1] is “binds”.

B2: biotinylated Nb10-Strep II tagged protein (VHH)
VHH: QVQLVESGGGLVQAGGSLGLSCAASGRTFSNYVMAWFRQAPGKEREFVARISESRGTTDYADSVKGRFTISRDNAKNTIYLQMNSLNPGDTAVYSCAATLPAWTGIIGGRRPGNYPYWGQGTQVTVSS
notes: as the chain of m2 (Nb10), with the C-terminal hexa-histidine tag exchanged for a strep II tag; source: E. coli WK6 (su-), purified (Strep-tactin beads, SEC), biotinylated; not shown: strep II, C-terminal, kept
B2: in experiment [2], the binding result is given as “binds”.

B3: nanobody Nb7 (CA12482) (VHH)
VHH: QVQLVESGGGLVQAGDSLTLSCAASGRTAYRYGMGWFRQHPGKEREFVASIWWTGTTTYYADSVKGRFTISRDDVKNMVYLQMNSLKPEDTAVYYCAAKFYGGNSKRPGDYAYWGQGTQVTVSS
notes: Raised by llama immunization with WzxE (Nanobody4Instruct), in plasmid pMESy4; In the ELISA it was probably detected by the anti-His HRP antibody (surmise; the methods leave out the step); also called chain C; source: E. coli WK6 (su-), purified (His-Trap, SEC)
For B3, the binding result in experiment [3] and in experiment [4] was “binds” each time.
